For assay [1], the target named is F*PfRON2sp1 (39 aa) [2021-2059], fluorescein-labeled PfRON2sp1 peptide (Plasmodium falciparum). The experiment in a line: fluorescence polarisation; anisotropy titration at 20°C; 10 nM F*PfRON2sp1 titrated with protein (0 to 10 μM); PBS pH 7.4, at least 0.1% BSA. In general terms: Fluorescence polarisation rises when a labelled molecule tumbles more slowly, as on binding a larger partner.

The target is the same in assay [2]. The experiment in a line: fluorescence polarisation; anisotropy titration at 25°C; 10 nM F*PfRON2sp1 titrated with protein (0 to 10 μM); PBS pH 7.4, at least 0.1% BSA.
The target is the same in assay [3]. The experiment in a line: fluorescence polarisation; anisotropy titration at 30°C; 10 nM F*PfRON2sp1 titrated with protein (0 to 10 μM); PBS pH 7.4, at least 0.1% BSA.
The target is the same in assay [4]. Briefly: fluorescence polarisation; anisotropy kinetics at 20°C; association: 10 nM labeled probe with 50, 100, 200 nM protein; dissociation: 10 nM preformed complex challenged with 2500 or 5000 nM unlabeled PfRON2sp1; global fit to a one-intermediate model; PBS pH 7.4, at least 0.1% BSA.
Assay [5] shares this target. The experiment in a line: fluorescence polarisation; anisotropy kinetics at 25°C; association: 10 nM labeled probe with 50, 100, 200 nM protein; dissociation: 10 nM preformed complex challenged with 2500 or 5000 nM unlabeled PfRON2sp1; global fit to a one-intermediate model; PBS pH 7.4, at least 0.1% BSA.
Assay [6] shares this target. Briefly: fluorescence polarisation; anisotropy kinetics at 30°C; association: 10 nM labeled probe with 50, 100, 200 nM protein; dissociation: 10 nM preformed complex challenged with 2500 or 5000 nM unlabeled PfRON2sp1; global fit to a one-intermediate model; PBS pH 7.4, at least 0.1% BSA.
In assay [7] the target is ΔDII-PfAMA1 (PfAMA1 DI-DII with residues 351-387 of the DII loop replaced by 7 Gly/Ser residues) (Plasmodium falciparum) (UniProt Q7KQK5). The experiment in a line: ITC; 25°C, MicroCal iTC200; cell: PfAMA1 or ΔDII-PfAMA1 (10 μM); syringe: PfRON2D3-TRX (110 μM), 17 injections of 2.2 μL; 20 mM Hepes pH 7.5, 150 mM NaCl; one binding site model.
Assay [8] concerns the target T1, PfAMA1 (DI-DII of Plasmodium falciparum Apical Membrane Antigen 1, 3D7, residues 104-438) (Plasmodium falciparum, UniProt Q7KQK5 104-438).
T1 construct: codon-optimized synthetic gene; also called native PfAMA1; PfAMA1 DI-DII construct
T1 sequence: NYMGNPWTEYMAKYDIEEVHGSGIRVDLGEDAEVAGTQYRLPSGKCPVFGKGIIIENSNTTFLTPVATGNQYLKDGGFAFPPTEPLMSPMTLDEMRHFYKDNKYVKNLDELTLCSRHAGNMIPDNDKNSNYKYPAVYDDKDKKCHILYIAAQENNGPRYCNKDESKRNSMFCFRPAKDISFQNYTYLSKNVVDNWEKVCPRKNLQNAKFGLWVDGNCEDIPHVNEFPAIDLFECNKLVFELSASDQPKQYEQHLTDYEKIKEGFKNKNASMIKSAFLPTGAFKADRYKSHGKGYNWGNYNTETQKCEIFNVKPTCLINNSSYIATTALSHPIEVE
Briefly: fluorescence polarisation; anisotropy titration at 20°C; 10 nM F*PfRON2sp1 titrated with protein (0 to 10 μM); PBS pH 7.4, at least 0.1% BSA. The note with it: both partners purified.

Assay [9] deals with T1, PfAMA1 (DI-DII of Plasmodium falciparum …). The experiment in a line: fluorescence polarisation; anisotropy titration at 25°C; 10 nM F*PfRON2sp1 titrated with protein (0 to 10 μM); PBS pH 7.4, at least 0.1% BSA. Conditions: both partners purified.
The target is the same in assay [10]. The experiment in a line: fluorescence polarisation; anisotropy titration at 30°C; 10 nM F*PfRON2sp1 titrated with protein (0 to 10 μM); PBS pH 7.4, at least 0.1% BSA. The note with it: both partners purified.
Assay [11] has the same target. The experiment in a line: fluorescence polarisation; anisotropy kinetics at 20°C; association: 10 nM labeled probe with 50, 100, 200 nM protein; dissociation: 10 nM preformed complex challenged with 2500 or 5000 nM unlabeled PfRON2sp1; global fit to a one-intermediate model; PBS pH 7.4, at least 0.1% BSA. The note with it: both partners purified.
Assay [12] shares this target. Briefly: fluorescence polarisation; anisotropy kinetics at 25°C; association: 10 nM labeled probe with 50, 100, 200 nM protein; dissociation: 10 nM preformed complex challenged with 2500 or 5000 nM unlabeled PfRON2sp1; global fit to a one-intermediate model; PBS pH 7.4, at least 0.1% BSA. The note with it: both partners purified.
For assay [13] the target is unchanged. The experiment in a line: fluorescence polarisation; anisotropy kinetics at 30°C; association: 10 nM labeled probe with 50, 100, 200 nM protein; dissociation: 10 nM preformed complex challenged with 2500 or 5000 nM unlabeled PfRON2sp1; global fit to a one-intermediate model; PBS pH 7.4, at least 0.1% BSA. Conditions: both partners purified.
Assay [14] shares this target. Briefly: ITC; 25°C, MicroCal iTC200; cell: PfAMA1 or ΔDII-PfAMA1 (10 μM); syringe: PfRON2D3-TRX (110 μM), 17 injections of 2.2 μL; 20 mM Hepes pH 7.5, 150 mM NaCl; one binding site model. The note with it: both partners purified. (ITC needs no label: the signal is the heat of the interaction.)
For assay [15] the target is unchanged. Described as above. Conditions: both partners purified. This is another data set of the same source.

Results on four molecules are retold here after PMC4701444 (PLoS ONE, 2016).

Broadly, the Kd is the free concentration of one partner at which half of the binding sites on the other are occupied at equilibrium, for simple one-to-one binding. A higher Kd goes with weaker binding.

Bridge positions count the residues as written; N and C are the ends. Ends that are not written are not given here. * marks the point of attachment. 5FAM = O=C1OC2(c3ccc(O)cc3Oc3cc(O)ccc32)c2ccc(C(=O)*)cc21

For “ΔDII-PfAMA1 (PfAMA1 DI-DII with residues 351-387 of the DII loop replaced by 7 Gly/Ser residues) (from UniProt Q7KQK5 104-350; Q7KQK5 388-438) (domain or fragment)”, in assay [1], the Kd was 60 nM. The molecule also returned a dissociation constant Kd in [2] of 94 nM. Moreover, the Kd in assay [3] came to 125 nM. Also, in assay [4], the Kd amounted to 50 nM; the complex half-life (calculated from the one-intermediate model) is 166 s; the complex half-life (experimental) is 100 s; the k1 (step 1, forward: reactants to intermediate) stood at 78900 M⁻¹ s⁻¹. In assay [4], this molecule gave a k1/k2 (association constant of step 1) of 1.89e+07 M⁻¹; a k2 (step 1, reverse: intermediate to reactants) of 0.00417 s⁻¹; a k3 (step 2, forward: intermediate to complex) of 0.00459 s⁻¹; a k3/k4 (equilibrium constant of step 2) of 0.056. Also, the k4 (step 2, reverse: complex to intermediate) in [4] is 0.0812 s⁻¹. In assay [5], the equilibrium dissociation constant (Kd) was found to be 80.1 nM; the complex half-life (calculated from the one-intermediate model) is 69.9 s; the complex half-life (experimental) was found to be 48 s; the dH (overall, summation of the transition states from the kinetic fit) is -10.6 kcal/mol. Besides, in assay [5], the dH of step 1 (formation of the intermediate) is -16.7 kcal/mol; the k1 (step 1, forward: reactants to intermediate) turned out to be 116000 M⁻¹ s⁻¹; the k1/k2 (association constant of step 1) was 1.17e+07 M⁻¹; the k2 (step 1, reverse: intermediate to reactants) worked out at 0.0099 s⁻¹. In [5], this molecule came in with a k3 (step 2, forward: intermediate to complex) of 0.0074 s⁻¹; a k3/k4 (equilibrium constant of step 2) of 0.067; a k4 (step 2, reverse: complex to intermediate) of 0.11 s⁻¹. In assay [6], the Kd was 126 nM; the complex half-life (calculated from the one-intermediate model) is 30 s; the complex half-life (experimental) is 30 s; the k1 (step 1, forward: reactants to intermediate) is 168000 M⁻¹ s⁻¹. In assay [6], this molecule had a k1/k2 (association constant of step 1) of 7.35e+06 M⁻¹; a k2 (step 1, reverse: intermediate to reactants) of 0.0229 s⁻¹; a k3 (step 2, forward: intermediate to complex) of 0.0117 s⁻¹; a k3/k4 (equilibrium constant of step 2) of 0.08. Further, the k4 (step 2, reverse: complex to intermediate) in assay [6] was 0.147 s⁻¹.
Take “PfRON2D3-TRX (thioredoxin fusion of PfRON2D3, amino acids Asp2021 to Ser2059) (domain or fragment)”: in assay [7], the Kd turned out to be 92.6 nM and the dH is -11.8 kcal/mol.

B1: F*PfRON2sp1 (39 aa) [2021-2059], fluorescein-labeled PfRON2sp1 peptide (peptide)
peptide: 5FAM-DITQQAKDIGAGPVASCFTTRMSPPQQICLNSVVNTALS
modifications: disulfide 17-29
notes: Rhoptry Neck Protein 2 (RON2) of Plasmodium falciparum, residues 2021-2059; also called labeled peptide; labeled probe; source: synthetic peptide, bought: Kinexus (purity ≥ 95%)
In the case of B1, the dissociation constant Kd came out at 31 ± 2 nM in [8]; 43 ± 3 nM in assay [9]; 61 ± 5 nM in assay [10]; 32.3 ± 8 nM in assay [11]; 38.2 ± 10 nM in assay [12]; 43.8 ± 11 nM in [13].

B2: PfRON2D3-TRX (thioredoxin fusion of PfRON2D3, amino acids Asp2021 to Ser2059) (domain or fragment)
chain: DITQQAKDIGAGPVASCFTTRMSPPQQICLNSVVNTALS
notes: Modified pET32a vector with N-terminal hexahistidine and thioredoxin tags and a thrombin cleavage site; the fusion was used uncleaved in ITC; also called TRX-fused peptide; not shown: thioredoxin (TRX), N-terminal, kept
In assay [14], B2 came in with an equilibrium dissociation constant (Kd) of 42.9 nM. Further, the dH in assay [15] was -12.1 ± 0.1 kcal/mol.
